Experiment: soluble on expression in E. coli; label from the status in PepcDB or PDB records

| Sequence | soluble on expression in E. coli |
| --- | --- |
| SMSAPAGEPPAPVRLRKNVCYVVLAVFLSEQDEVLLIQEAKRECRGSWYLPAGRMEPGETIVEALQREVKEEAGLHCEPETLLSVEERGPSWVRFVFLARPTGGILKTSKEADAESLQAAWYPRTSLPTPLRAHDILHLVELAAQYRQQARHPLIL | soluble |
| MSVNFSPCVLIPCYNHGAMMPGVLARLKPFNLPCIVVDDGSDATTQQQLDSLLAEQPGVTLIRLAENAGKGAAVMRGLQAAADAGFSHAVQVDADGQHAIEDIPKLLALAEQQPAALISGQPIYDDSIPRSRLYGRWVTHVWVWIETLSLQLKDSMCGFRVYPVAPTLQLAKHATIGKRMDFDTEVMVRLYWQGNTSYFVPTRVTYPLDGLSHFDALKDNVRISLMHTRLFFGMLPRIPSLLMRRSSCHWARQSEVKGLWGMRLMLLVWRLLGRTAFSALLYPVVGVYWLTASRARKASQDWLARVRQHQPQAAKLNSYQHFLRFGNAMLDKIASWRGELQPGRDVLFAPGAEAALDVRDPRGKLLLASHLGDVEVCRALAKIQGYKTINALVFSENAQRFKQIMQEMAPQAGINLMPVTDIGPETAILLKEKLDNGEWVAIVGDRIAVNPQRGGDWRVCWSSFMGQPAPFPQGPFILASILRCPVNLIFALRQHGKLHIHCESFADPLQLPRGERQQALQNAIDHYAARLEHYALQSPLDWFNFFDFWQLPEIQDKE | not soluble |
| GVSKEEYKDVETAKKEKEQLGELMEPALGYVVKVPVSSFENKKVDISDIEVITNGNLDDVPYKANSSKYNYPDIKTKDSSLQYVRSGYVIDGEHSGSNEKGYVYYKGNSPAKELPVNQLLTYTGSWDFTSNANLNNEEGRPNYLNDDYYTKFIGKRVGLVSGDAKPAKHKYTSQFEVDFATKKMTGKLSDKEKTIYTVNADIRGNRFTGAATASDKNKGKGESYNFFSADSQSLEGGFYGPKAEEMAGKFVANDKSLFAVFSAKHNGSNVDTVRIIDASKIDLTNFSISELNNFGDASVLIIDGKKIKLAGSGFTNKHTIEINGKTMVAVACCSNLEYMKFGQLWQQAEGGKPENNSLFLQGERTATDKMPKGGNYKYIGTWDAQVSKENNWVATADDDRKAGYRTEFDVDFGNKNLSGKLFDKNGVNPVFTVDPKIDGNGFTGKAKTSDAGFALDSGSSRYENVKFNDVAVSGGFYGPTAAELGGQFHHKSENGSVGAVFGAKQQVKK | soluble |
| MAHHHHHHMRISCSCLNKSLVSTAIPSDIIERAGTNLPGIPHKYRVCRAYRQWLKLAVLCPHSLLCELNEHAQMNERFVIIVRQKFREGEELRDPEEIAVAVQSCERSLAMFRFLAADGARRRFPEAKPRLNLHKMGFMEMAKINYTQMAKEYWNTYIMRRW | not soluble |
| MAHHHHHHMLSHSSQLCSLWIESARVIRLDHCRCPGRLVSTGLGVSSEIRKTNLNGKSYTLDPVEMEPVFGVNRASDFSEKGGLCSTNETNEKNVLLSGGDIVSRNQKEVDKVERVALVAEKEHEEEEPLARNLHNTIGPTPYRVSWYDYGSVSPSKRFTYWAYRRLKELPTDWQEYYRRMLYQEISAARYVNQTWDCFMMVVDGYRKAKWILKKYGISIDESLIPKPYNNFWEETTHEERVWAHRRSHQMKELQALYRDEDELVFGAHTMDRREVSHGSIKNVQTGMQGGTPVHALDLPAPCESEIKTSPQIEDMSSALMSSIEDDKLWNPVLRSRIHTRRSREEVELYSFEDDEEDENSPS | soluble |
| MSEPPPPHSAPVPMVKTDFFAFSGPYLPEDAHGTSSPPEKQQQTRKRGRPTALELLTTRVEELEKENSSLRTFRTAAESRCRALESKQSELFQTVEQLKVVVAKLTNECSARVTSNLPAPRLFADVLKGQSAEKKAEIIAERREAAASISLFEKKTHFAVIENLPDDGSDSQSAKDKVFLDNLIAANPSLPVHIQTFRVKTRKPVLSRPTKIRFSSEADRNSFIFSFSKTLRSLPDRPTNLPRPIRCRRDMTNDVIYPERVES | not soluble |
| MSLRVTEPEMDQNLRDAIRMVINELTSSSGEVSQWTLREITARYRNLYRIKDPFVLDYYINRYMSGLRSVYPLYINDAIERIMSNGYDRPVIVQYNGKYYETNITLKREDLDSIAIRVSQMMGKKISSGSPIAYGNLQNFRSIVTFGDDVTPFGSSLYLERRHVVADPEAMSSMKDPMVSAYLIMALENMRSIMIIGPDSPMKIAIIYHLIRMIGSEKKIAYIGENGRFDFPRNIVYMMPRERTVFSSEISRTDLINTALRQRPDFIVVNGLTARELPAAVQAITTGHPTLSSMDIDSIENFSSLFSDPSTGLSKDMISLFDVVIEIADNGEYVKAIYEYDRLEGQEVLYNVPFSADRKRKLVFSGYSGIFRRMSKVIGEDSFRQALENRMKELDGGEGHHHHHH | soluble |
| MGSDKIHHHHHHMLTKRQLLVLKEIIRLFTESGQPVGSKTLMQELPVHVSSATIRNDMAALEDAGLITKTHSSSGRVPSTQGYRYYLDHLVEPVRVSRHDLATIKQELGQRYSKMDEIVAQSAQILSNLTSYTAISLGPEVNNIKLTGFRLVPLGNHQVMAILVTNNGNVENQVFTVPPSISFDELEKAIRIVNDQLVGLPLVQVAQRLRTDVPSMLMQYLTSPDGFLDIFGNVLKSAASERFYVGGRLNLMDYLGDSDIHELKKIMSLIDADHGDLTELLGGPIRQTPVQVRLGPELKPIDLANLSLITASYDVGGHGTGMIALLGPTQMPYSKMIGLLDVFREELAKRLTDYYANFDQ | not soluble |
| DKPLSNMKILTLGKLSRNKDEVKAMIEKLGGKLTGTANKASLCISTKKEVEKMNKKMEEVKEANIRVVSEDFLQDVSASTKSLQELFLAHILSSWGAEVK | soluble |
| GPGSMYQLWGGSPFKPHKQNPSIMIDKSGTEVRLIGESRDVLQTLATNPKWANTYLAISSTCDVPSWARELLGTFEFTDYAGKTVPMHSLFSDRIEIYKANKAKQHEMILQKVNKVDPSVSEYAQMLFFDNQTDNVRHVSGIGVTSCYCPSGMTKGTFEKGLEMWRRAAAVEDVRYDRVVECRA | not soluble |
| MAHHHHHHMRKKGSGFIGGKLNLKIKKKKKNAKQEARHGEASHVDSVAKSGEAVQVKSDPSEHDGKKDGSEKIIKGTGRITTEKNTVRGVRTDFMAEIKEGYDIILENPSTFRNERRTVTSVLSNKTLLVHEEFTTDISTTCAFYIASGGKSGGKPVGQPADTPEAHIGVEYAKVFEQTSRQDQVEVREKTGLWSYRVVKKKVDGRLTNEEKLDMRVRSGRDKFCW | not soluble |
| MDVFNRNAERYDAWYDRNRELYEAELELLPKPISPSVEVGVGTGRFAVIGIDLGVDVSLQMLRIAKKRGVECVAGDAAHLPFKDKSFRSAYLIFTLCFLDEPIKALMEIKRVLEGTLVACVVPANSGLGREYSGKDSSFYRKARFLTEDEVLSMLRETGFKVKEIRRRKLKYDENDFVCFIAES | not soluble |
| RRMVALYDYDPRESSPNVDVEAELTFCTGDIITVFGEIDEDGFYYGELNGQKGLVPSNFLEEV | soluble |
| AIAQRFLDSISAATQAKSPAEHETLVAMADLYAIITCVEYLERAWRANAVSDEDYTRNCSRLIAQFRATRQLVMDDVPSVISFLEEYHLAARAAMNRLQVGVPATVEHANSSDETRRRNFTAAAIQATEAFLTFRDALELGERSVDRLLPYLREILLVLGRMGAVFGTADGDATVQRERIVQWVRRLDAMHAYEQITEEDKRQLAHDVDTLYDTFRRRVGELEM | soluble |
| MGSDKIHHHHHHMIHKLEMFIAVAREAHFGRAAESLGLTQPTLSTGIKQLEEMLGVQLIFRGSRYGGLTPEGQRALVWARQLVSDARTFRQEMRTARHGLSGIVRLAVIPTALTWAAHLSARFSAAHPNVRFSILSRTSAEILSMLENLEADAGLSYLDNEPLGRVTTEPLYRERHTVVAHRDSDIAMQDKVEWADLAGERLCLLTPNMQNRRIINEYFMAAGIAPEAQVESNSTVVLAAHVEAGDWITILPVDMARFLCGGKPHLVIREIEGTGMDHAVGLVAPYREPHTPVLNALISETRALAKAHA | not soluble |
| MAHHHHHHMQSVLPYTTNPAQIGSIEKLKLINPSSAAATGPYVNVRDPKLVVGGLLHNWDAEAAHALLNAPKSVQTWDLSWTEDETNWEERVHRCTYPEEVEDLLPAKWIGYRVQSDVDETLARVCKLCTALVDRLVSLSQGNNANVSTAKWRQRQALYDRLGAVMELLEASVGEAIPILKLKDPEFIQNCWRQMQDDERVEIISVLGTKEYD | soluble |
